Like-named read-outs stand apart in the source and are kept apart here. Square brackets hold non-standard residues; d marks the D form. Ends that are not written are not given here. pS = N[C@@H](COP(=O)(O)O)C(=O)O
Assays:
[1] = target: importin α5 (79-538) in the ITC cell (human) (UniProt P52294); test: ITC
[2] = target: importin α5 (79-538) in the ITC cell (human) (UniProt P52294); test: ITC; remark: listed apart in the source

For KRPRSPSS (not fully specified) [unphosphorylated EBNA-1 NLS peptide (379-KRPRSPSS-386)], the Kd [1] was 60 µM, the Kd [2] was 30 µM and the dH [2] was 6550 cal/mol.

With KRPRSP[pS]S [phosphorylated EBNA-1 NLS peptide (379-KRPRSPpSS-386)] the dH [2] was 6950 cal/mol.
